# Test results: article PMC9835228 (Journal of Translational Medicine, 2023)
# Several values for one entry are separate records, joined by “and”; a condition that tells them apart may be missing. Equal values may be shown once. Read-outs that look alike come from different tables or passages of the source. Residues, ends and D or L forms follow the SMILES beside them.
# Columns and labels:
# [1] = target: HER2 protein (Homo sapiens, UniProt P04626); experiment: Surface plasmon resonance of peptides toward HER2 protein; assay type: binding
# [2] = in vivo; settings: female, NOD SCID, mouse, tumor (MCF7 xenograft), 0.37 MBq, total radioactivity
# Experimental: (§1) The animals were randomly chosen for in vivo assays when the tumor size reached 100–150 mm^3 (1–2 weeks after inoculation).
# (§2) Each mouse was injected with 0.37 MBq (~ 0.03 µg) of tracer to evaluate the distribution of the probe in tumors and major organs (4 mice/group). The mice were sacrificed and dissected at 0.5, 1 and 2 h p.i. Blood, tumor, liver, kidney and other major organs were collected and weighed, and their radioactivity was counted in a Wallac 1480 γ-counter (Perkin-Elmer, Waltham, MA). […] All biodistribution data are presented as the percentage of injected dose per gram of tissue (%ID/g).
# [3] = In vivo metabolic stability (urine, radio-HPLC); settings: ~37 MBq i.v., mouse urine collected p.i. (2 h, b63; 0.5 h for ^99mTc-H10F in Fig. S3)
# [4] = test system: HER2 expression in breast tumors
# Experimental: (§3) The wrist or elbow on the same side as the healthy breast was selected for injection. […] On PET images, the volumes of interest (VOIs) were drawn over tumors using a 40% threshold, and the software automatically obtained the radioactivity concentration and the maximum and the mean standardized uptake values (SUVmax and SUVmean, respectively). T/B ratios were calculated from SUVmean values for further analysis. The contralateral breast tissue was considered the background for calculations. For semiquantitative analyses of SPECT images, the same VOI method as above was adopted to obtain the maximum and the average count values (Countsmax and Countsavg, respectively) of the breast tumors. The Countsavg value was compared between the tumor region and the contralateral region to obtain the T/B ratio. Calculations were performed using SPSS 23.0 software (IBM SPSS, Chicago, IL, USA) and GraphPad Prism 8 (GraphPad Software, San Diego, CA 92,108). After surgery, HER2 expression status was evaluated by IHC in tumor pathological sections of all 34 patients. For patients with an IHC score of HER2 (2 +), FISH was further performed.
# (§4) Quantitative data were expressed as the mean ± SD. Statistical analysis of image parameters and biodistribution was performed with Student’s t test in Prism 7.0 (GraphPad Software, Inc., USA). P < 0.05 was considered statistically significant. Correlation analysis of the SUV data of clinical images and the IHC results was performed with SPSS Statistics 23.0 software (IBM SPSS, USA). The correlation between the SPECT T/B ratio and HER2 status was evaluated by Wilcoxon’s rank sum test. Spearman’s rank correlation analysis was performed on the SPECT T/B ratio and the immunoreactivity score. ROC curve analysis was performed to determine an optimal cutoff value for detecting HER2-positive (2 + , 3 +) breast cancer and to compare the diagnostic performance of different methods.
# [5] = in vivo; settings: female, NOD SCID, mouse, tumor (MDA-MB-468 xenograft), 0.37 MBq, total radioactivity
# Experimental: as §1, §2
# [6] = Dosimetry estimation (OLINDA/EXM); set-up: species or system human; settings: for effective radiation dose to the body: 11.1 MBq/kg
# Experimental: The dosimetry calculation was performed according to the European Association of Nuclear Medicine Dosimetry Guidance and calculated using OLINDA/EXM (version 1.1; Vanderbilt University). The radiation effective dose (mSv/MBq) of the main organs of the human body was estimated from the biodistribution data of the SK-BR-3 tumor models (Additional file 1: Table S1).
# The radiation effective dose (mSv/MBq) of the main organs of the human body was estimated from the biodistribution data of the SK-BR-3 tumor model (Table S1).
# [7] = clinical; settings: female, human, in vivo, iv, 11.1 MBq per kilogram body weight, total radioactivity, mean ± SD
# Experimental: as §3, §4
# [8] = 1.85 MBq i.v., blood 1-240 min p.i., γ-counter, seven mice, fitted in Prism 7.0
# Experimental: Blood was drawn through the orbit of the mouse at 1, 3, 8, 15, 30, 60, 90, 120, 180, and 240 min p.i. The radioactivity was counted in a γ-counter, and the percentage injected dose per gram of blood (%ID/g) at each time point was calculated. The slow half-life and fast half-life were analyzed and calculated by Prism 7.0.
# [9] = in vivo; settings: female, NOD SCID, mouse, tumor (SK-BR-3 xenograft), iv, 0.37 MBq, total radioactivity
# Experimental: as §1, §2
# [10] = radio-HPLC (Fig. 1B)
# [11] = test system: SK-BR-3 tumor (HER2-positive); settings: 0.5, 1 and 2 h p.i.; 0.37 MBq i.v.; 4 mice/group
# Experimental: as §1, §2
# [12] = test system: SK-BR-3 tumors (HER2-positive); experiment: Small-animal nanoScan SPECT/CT imaging in the SK-BR-3 tumor model; assay type: in vivo, female NOD SCID mice
# Experimental: At 0.5, 1 and 2 h p.i., the mice were anesthetized by inhalation of 2% isoflurane and imaged using a nanoScan SPECT/CT system (Mediso Inc., Hungary) following a standard protocol. Briefly, the small-animal SPECT images were acquired with the technetium-99 m parameters (peak 140 keV with 20% width, frame time 25 s), and CT images were acquired with default settings (50 kVp, 0.67 mA, and rotation 210°, exposure time 300 ms). All SPECT/CT images were reconstructed and further analyzed by Fusion software (Mediso Inc., Hungary), including drawing volumes of interest on tumors and major organs as well as calculating the tumor uptake (%ID/cc) accordingly. […] Small-animal imaging of the monomer tracer ^99mTc-HP-rk was also conducted as a control.
# [13] = 74 MBq i.v., n = 5
# Experimental: Ten 4-week-old female ICR mice were randomly divided into the experimental and control groups. The mice were numbered, weighed and photographed. […] The mice in the control group were injected with the same volume of saline. After 120 h, the mice were photographed again, their body weight was recorded, and the behavioral differences were observed. After the mice were sacrificed, they were dissected to observe the morphological differences in the organs.
# [14] = target: HER2 on SK-BR-3 cells (HER2-positive human breast cancer cell line) (human (endogenous in SK-BR-3)) (UniProt P04626)
# [15] = target: T1, HER2 protein (human, UniProt P04626 23-652); experiment: SPR; Plexera PlexArray HT; sulfhydryl peptides printed on a bare gold chip through the cysteine thiol, blocked with 5% nonfat milk; protein flowed over in PBS (HER2 at 70.4, 35.2, 17.6 and 8.8 nM); regeneration 0.5% H3PO4; EGFR, HER3 and HER4 as controls with the same procedure; settings: both partners purified
# T1 construct: human epidermal growth factor receptor 2 (HER2), soluble protein used as SPR analyte; also called human epidermal growth factor receptor 2
# [16] = Female, OLINDA/EXM 1.1, from mouse SK-BR-3 biodistribution
# [17] = Male, OLINDA/EXM 1.1, from mouse SK-BR-3 biodistribution
molecule,measurement,setting,value
CC(C)C[C@@H](NC(=O)[C@@H](CCCNC(=N)N)NC(=O)[C@@H](CC(C)C)NC(=O)[C@@H](CCC(=O)O)NC(=O)[C@@H](Cc1c[nH]c2ccccc12)NC(=O)[C@@H](CC(N)=O)NC(=O)[C@@H](CCCNC(=N)N)NC(=O)CCCCCCCNC(=O)CC[C@H](N)C(=O)NCCCCCCCC(=O)N[C@H](CCCNC(=N)N)C(=O)N[C@H](CC(N)=O)C(=O)N[C@H](Cc1c[nH]c2ccccc12)C(=O)N[C@H](CCC(=O)O)C(=O)N[C@H](CC(C)C)C(=O)N[C@H](CCCNC(=N)N)C(=O)N[C@H](CC(C)C)C(=O)N[C@H](CCCCN)C(=O)O)C(=O)N[C@H](CCCCN)C(=O)O [Ark2],Kd,"[1]; read-out: dissociation constant (KD) to HER2 protein, SPR, Plexera PlexArray HT, Cys-peptides printed on gold chip, HER2 protein 8.8-70.4 nM in PBS, from fitted association/dissociation rates",10 nM
"CC(C)C[C@@H](NC(=O)[C@@H](CCCNC(=N)N)NC(=O)[C@@H](CC(C)C)NC(=O)[C@@H](CCC(=O)O)NC(=O)[C@@H](Cc1c[nH]c2ccccc12)NC(=O)[C@@H](CC(N)=O)NC(=O)[C@@H](CCCNC(=N)N)NC(=O)CCCCCCCNC(=O)CC[C@H](NC(=O)CCOCCOCCOCCOCCNC(=O)c1ccc(NN=Cc2ccccc2S(=O)(=O)O)nc1)C(=O)NCCCCCCCC(=O)N[C@H](CCCNC(=N)N)C(=O)N[C@H](CC(N)=O)C(=O)N[C@H](Cc1c[nH]c2ccccc12)C(=O)N[C@H](CCC(=O)O)C(=O)N[C@H](CC(C)C)C(=O)N[C@H](CCCNC(=N)N)C(=O)N[C@H](CC(C)C)C(=O)N[C@H](CCCCN)C(=O)O)C(=O)N[C@H](CCCCN)C(=O)O [^99mTc-HP-Ark2, metal not drawn]",tissue uptake at 0.5 h,[2],1.44 ± 0.08 %ID/g
same,in vivo metabolic stability,[3],excellent in vitro and in vivo stability
same,adverse events related to tracer administration,"[4]; 34 patients, ~11.1 MBq/kg i.v.",No adverse events
same,detection of metastatic lymph nodes,"[4]; patients with HER2-positive tumors and ipsilateral lymph node metastases (Nos. 4, 5, 7, 15, 24, 29)",all 6 patients
same,kidney uptake in patients,"[4]; quantified biodistribution from SPECT/CT, n = 34 (Fig. S10)",high uptake
same,tissue uptake at 0.5 h,[5],1.08 ± 0.06 %ID/g
same,effective radiation dose to the body,[6]; 50 kg females,~5.72 mSv
same,effective radiation dose to the body,[6]; 65 kg males,approximately 6.62 mSv
same,"Effective Dose Equivalent, Adrenals",[6]; [16],5.36E-04 mSv/MBq
same,"Effective Dose Equivalent, Brain",[6]; [16],0.00E+00 mSv/MBq
same,"Effective Dose Equivalent, Breasts",[6]; [16],4.44E-05 mSv/MBq
same,"Effective Dose Equivalent, Gallbladder Wall",[6]; [16],2.60E-04 mSv/MBq
same,"Effective Dose Equivalent, Heart Wall",[6]; [16],0.00E+00 mSv/MBq
same,"Effective Dose Equivalent, Kidneys",[6]; [16],7.87E-03 mSv/MBq
same,"Effective Dose Equivalent, LLI Wall",[6]; [16],0.00E+00 mSv/MBq
same,"Effective Dose Equivalent, Liver",[6]; [16],0.00E+00 mSv/MBq
same,"Effective Dose Equivalent, Lungs",[6]; [16],1.90E-04 mSv/MBq
same,"Effective Dose Equivalent, Muscle",[6]; [16],0.00E+00 mSv/MBq
same,"Effective Dose Equivalent, Osteogenic Cells",[6]; [16],6.07E-05 mSv/MBq
same,"Effective Dose Equivalent, Ovaries",[6]; [16],2.49E-04 mSv/MBq
same,"Effective Dose Equivalent, Pancreas",[6]; [16],3.43E-04 mSv/MBq
same,"Effective Dose Equivalent, Red Marrow",[6]; [16],2.27E-04 mSv/MBq
same,"Effective Dose Equivalent, Skin",[6]; [16],0.00E+00 mSv/MBq
same,"Effective Dose Equivalent, Small Intestine",[6]; [16],0.00E+00 mSv/MBq
same,"Effective Dose Equivalent, Spleen",[6]; [16],4.89E-04 mSv/MBq
same,"Effective Dose Equivalent, Stomach Wall",[6]; [16],0.00E+00 mSv/MBq
same,"Effective Dose Equivalent, Thymus",[6]; [16],0.00E+00 mSv/MBq
same,"Effective Dose Equivalent, Thyroid",[6]; [16],2.78E-06 mSv/MBq
same,"Effective Dose Equivalent, ULI Wall",[6]; [16],0.00E+00 mSv/MBq
same,"Effective Dose Equivalent, Urinary Bladder Wall",[6]; [16],0.00E+00 mSv/MBq
same,"Effective Dose Equivalent, Uterus",[6]; [16],0.00E+00 mSv/MBq
same,"Effective Dose Equivalent, Adrenals",[6]; [17],4.04E-04 mSv/MBq
same,"Effective Dose Equivalent, Brain",[6]; [17],0.00E+00 mSv/MBq
same,"Effective Dose Equivalent, Breasts",[6]; [17],3.64E-05 mSv/MBq
same,"Effective Dose Equivalent, Gallbladder Wall",[6]; [17],2.31E-04 mSv/MBq
same,"Effective Dose Equivalent, Heart Wall",[6]; [17],0.00E+00 mSv/MBq
same,"Effective Dose Equivalent, Kidneys",[6]; [17],7.26E-03 mSv/MBq
same,"Effective Dose Equivalent, LLI Wall",[6]; [17],0.00E+00 mSv/MBq
same,"Effective Dose Equivalent, Liver",[6]; [17],0.00E+00 mSv/MBq
same,"Effective Dose Equivalent, Lungs",[6]; [17],1.38E-04 mSv/MBq
same,"Effective Dose Equivalent, Muscle",[6]; [17],0.00E+00 mSv/MBq
same,"Effective Dose Equivalent, Osteogenic Cells",[6]; [17],4.73E-05 mSv/MBq
same,"Effective Dose Equivalent, Pancreas",[6]; [17],2.81E-04 mSv/MBq
same,"Effective Dose Equivalent, Red Marrow",[6]; [17],1.94E-04 mSv/MBq
same,"Effective Dose Equivalent, Skin",[6]; [17],0.00E+00 mSv/MBq
same,"Effective Dose Equivalent, Small Intestine",[6]; [17],0.00E+00 mSv/MBq
same,"Effective Dose Equivalent, Spleen",[6]; [17],3.96E-04 mSv/MBq
same,"Effective Dose Equivalent, Stomach Wall",[6]; [17],0.00E+00 mSv/MBq
same,"Effective Dose Equivalent, Testes",[6]; [17],0.00E+00 mSv/MBq
same,"Effective Dose Equivalent, Thymus",[6]; [17],0.00E+00 mSv/MBq
same,"Effective Dose Equivalent, Thyroid",[6]; [17],2.27E-06 mSv/MBq
same,"Effective Dose Equivalent, ULI Wall",[6]; [17],0.00E+00 mSv/MBq
same,"Effective Dose Equivalent, Urinary Bladder Wall",[6]; [17],0.00E+00 mSv/MBq
same,"Effective Dose Equivalent, Uterus",[6]; [17],0.00E+00 mSv/MBq
same,tissue to tissue ratio at 0.5 h,"[7]; T/B ratio of HER2-negative tumors, IHC (2+) plus FISH+ or IHC (3+) criterion, n = 24",1.54 ± 1.03
same,tissue to tissue ratio at 0.5 h,"[7]; T/B ratio of HER2-negative tumors, negative = IHC (0/1+), n = 17",1.16 ± 0.29
same,tissue to tissue ratio at 0.5 h,"[7]; T/B ratio of HER2-positive tumors, positive = IHC (2+) or (3+), n = 19",2.49 ± 1.13
same,tissue to tissue ratio at 0.5 h,"[7]; T/B ratio of HER2-positive tumors, positive = IHC (2+) plus FISH+ or IHC (3+), n = 12",2.5 ± 0.88
same,fast half-life in blood,[8],3.12 min
same,slow half-life in blood,[8],32.45 min
same,tissue uptake at 0.5 h,[9],3.99 ± 0.15 %ID/g
same,in vitro stability,[10],excellent in vitro and in vivo stability
same,tumor uptake compared with other organs,[11],higher tumor uptake than uptake in other organs (except for kidneys)
same,imaging intensity in tumors compared with monomer tracer,"[12]; SK-BR-3 model, 0.5 h p.i.",stronger than that of ^99mTc-HP-rk
same,tumor uptake on imaging with coinjected cold rk peptide,"[12]; blocking dose 25 mg/kg rk, 0.5 h p.i.",significantly blocked tumor uptake
same,tumor uptake on imaging with coinjected cold trastuzumab,"[12]; blocking dose 30 mg/kg trastuzumab, 0.5 h p.i.",did not block tumor uptake
same,tumor visualization by SPECT/CT,"[12]; ~37 MBq i.v., 0.5, 1 and 2 h p.i., subcutaneous or in situ, tumors as small as ~20 mm^3",clearly visualized
same,body weight after high-dose injection,[13]; 120 h,did not decrease
same,organ morphology after dissection,[13]; 120 h,no abnormal organs
same,behavior after high-dose injection,[13]; 120 h after injection,no abnormal behavior
CC(C)C[C@H](NC(=O)[C@H](CCCNC(=N)N)NC(=O)[C@H](CC(C)C)NC(=O)[C@@H](N)CCCCN)C(=O)N[C@@H](CCC(=O)O)C(=O)N[C@@H](Cc1c[nH]c2ccccc12)C(=O)N[C@@H](CC(N)=O)C(=O)N[C@@H](CCCNC(=N)N)C(=O)O [H10F] (H-KLRLEWNR-OH),Kd,[1],70 nM and 70.2 nM
"CC(C)C[C@@H](NC(=O)[C@@H](CCCNC(=N)N)NC(=O)[C@@H](CC(C)C)NC(=O)[C@@H](CCC(=O)O)NC(=O)[C@@H](Cc1c[nH]c2ccccc12)NC(=O)[C@@H](CC(N)=O)NC(=O)[C@@H](CCCNC(=N)N)NC(=O)CCOCCOCCOCCOCCNC(=O)c1ccc(NN=Cc2ccccc2S(=O)(=O)O)nc1)C(=O)N[C@H](CCCCN)C(=O)O [^99mTc-HP-rk, metal not drawn]",tissue uptake at 0.5 h,[9],1.94 ± 0.12 %ID/g
"^99mTc-HP-Ark2, ^99mTc-{HYNIC-PEG4-Glu[8-aminooctanoic-D(RNWELRLK)]2/Tricine/TPPTS} (peptide)","tumor uptake in the SK-BR-3 tumor model at 0.5 h p.i. (biodistribution, n = 4)",[14],3.99 %ID/g
same,"tumor uptake in the SK-BR-3 tumor model at 0.5 h p.i. with coinjection of excess cold rk peptide (blocking group, n = 4)",[14],1.42 %ID/g
"KLRLEWNR (HER2-targeting L-peptide H10F; also called parental L-peptide; source: synthetic peptide, bought: GL Biochem Ltd) [Cys-H10F (sulfhydryl form of the L-peptide H10F, KLRLEWNR)]",Kd,[15],70.2 nM
